This is an account of results in patent US20050191301A1 (Janssen / Centocor, published 2005).

Ends that are not written are not given here.

Experiment [1] addresses EPO receptor (on UT-7/EPO cells) (human) (UniProt P19235). Description: cell-based or functional assay.
Experiment [2] addresses T1, EPO receptor (on UT-7/EPO cells) (human, UniProt P19235 25-508).
T1 sequence (looked up): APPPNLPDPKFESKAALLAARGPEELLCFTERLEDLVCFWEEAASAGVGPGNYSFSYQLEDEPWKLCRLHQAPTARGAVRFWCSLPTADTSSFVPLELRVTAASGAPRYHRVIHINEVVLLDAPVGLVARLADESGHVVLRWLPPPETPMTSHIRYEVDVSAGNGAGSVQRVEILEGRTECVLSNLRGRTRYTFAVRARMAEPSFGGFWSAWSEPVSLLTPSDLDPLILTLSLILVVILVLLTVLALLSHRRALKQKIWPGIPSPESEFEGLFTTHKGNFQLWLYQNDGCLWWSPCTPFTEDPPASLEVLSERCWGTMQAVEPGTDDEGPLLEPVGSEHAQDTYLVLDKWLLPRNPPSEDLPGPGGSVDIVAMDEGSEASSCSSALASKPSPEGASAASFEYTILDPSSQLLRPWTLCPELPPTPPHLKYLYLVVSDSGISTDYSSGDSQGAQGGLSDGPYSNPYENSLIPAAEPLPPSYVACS
Kind of experiment: cell-based or functional assay.

Take “recombinant human erythropoietin (rHuEPO) (from UniProt P01588 28-192) (ligand)”: in experiment [1], the EC50 in the UT7 in vitro bioactivity assay, relative to its historical average worked out at 3 fold.

As to GGTYSCHFGPLTWVCKPQGG (ends and bridges not checked; cysteine pairing not given here) [EMP-1 (EPO mimetic peptide-1)], the “EC50 in the UT-7/EPO in vitro bioactivity assay, relative to its historical average” value in experiment [2] worked out at 2 fold.
